Test results taken from the supplement of paper PMC9112550, “Optimization of the antimicrobial peptide Bac7 by deep mutational scanning” (BMC Biology, 2022).

system: Escherichia coli TOP10; test: shrunken log2 fold change of peptide-encoding DNA abundance (4.5 h post-induction vs induction); higher = less antimicrobial activity (less host growth inhibition); conditions: time post-induction: 4.5 h; library: site-saturation at positions 5, 18, 19, 20
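Note: peptides expressed intracellularly from a pBAD plasmid library in pooled LB shake-flask culture, induced with 0.3% L-arabinose, DNA abundance read by NGS, three biological replicates, DESeq2 with apeglm shrinkage.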

Sequence	shrunken log2 fold change
RRIRHRPPRLPRPRPRPCAIPRP	-0.303
RRIRKRPPRLPRPRPRPTPGPRP	0.683
RRIRERPPRLPRPRPRPIFIPRP	-0.508
RRIRKRPPRLPRPRPRPWATPRP	0.546
RRIRSRPPRLPRPRPRPHRQPRP	0.114
RRIRLRPPRLPRPRPRPQKCPRP	-0.222
RRIRRRPPRLPRPRPRPTNAPRP	0.158
RRIRCRPPRLPRPRPRPTPCPRP	0.281
RRIRDRPPRLPRPRPRPMWTPRP	0.217
RRIRRRPPRLPRPRPRPPRTPRP	1.16
RRIRPRPPRLPRPRPRPLAPPRP	0.33
RRIRQRPPRLPRPRPRPANAPRP	-0.0699
RRIRWRPPRLPRPRPRPFLHPRP	-0.772
RRIRRRPPRLPRPRPRPMGDPRP	-0.251
RRIRLRPPRLPRPRPRPPIFPRP	-0.0913
RRIRIRPPRLPRPRPRPNIWPRP	0.127
RRIRPRPPRLPRPRPRPDSCPRP	0.0412
RRIRQRPPRLPRPRPRPQYWPRP	-0.0582
RRIRCRPPRLPRPRPRPHEEPRP	0.0524
RRIRDRPPRLPRPRPRPHMYPRP	-0.102
RRIRKRPPRLPRPRPRPIICPRP	-0.0679
RRIRIRPPRLPRPRPRPHCLPRP	-0.104
RRIRKRPPRLPRPRPRPGADPRP	0.709
RRIRARPPRLPRPRPRPNPCPRP	0.0698
RRIRQRPPRLPRPRPRPKHYPRP	-0.223

Sequence	shrunken log2 fold change
RRIRIRPPRLPRPRPRPQSGPRP	0.00632
RRIRTRPPRLPRPRPRPKRTPRP	-0.132
RRIRVRPPRLPRPRPRPNYQPRP	-0.699
RRIRDRPPRLPRPRPRPYALPRP	-0.051
RRIRQRPPRLPRPRPRPHLYPRP	-0.129
RRIRPRPPRLPRPRPRPMGPPRP	-0.248
RRIRTRPPRLPRPRPRPAVQPRP	0.0481
RRIRQRPPRLPRPRPRPPSYPRP	-0.0228
RRIRFRPPRLPRPRPRPIGAPRP	0.064
RRIRFRPPRLPRPRPRPLHEPRP	0.0931
RRIRRRPPRLPRPRPRPYPIPRP	-0.269
RRIRLRPPRLPRPRPRPHMHPRP	-0.578
RRIRFRPPRLPRPRPRPTSIPRP	-0.296
RRIRSRPPRLPRPRPRPLSCPRP	0.0284
RRIRCRPPRLPRPRPRPEITPRP	0.0771
RRIRQRPPRLPRPRPRPMCYPRP	-0.01
RRIRARPPRLPRPRPRPKRFPRP	0.249
RRIRCRPPRLPRPRPRPHCHPRP	-0.475
RRIRTRPPRLPRPRPRPRVDPRP	0.181
RRIRDRPPRLPRPRPRPVLHPRP	0.0367
RRIRERPPRLPRPRPRPATNPRP	-0.386
RRIRHRPPRLPRPRPRPKYNPRP	-0.892
RRIRCRPPRLPRPRPRPDASPRP	0.27
RRIRLRPPRLPRPRPRPMKEPRP	-0.019
RRIRMRPPRLPRPRPRPPSKPRP	0.557

Sequence	shrunken log2 fold change
RRIRARPPRLPRPRPRPTMKPRP	0.296
RRIRSRPPRLPRPRPRPGYNPRP	-0.846
RRIRARPPRLPRPRPRPAKHPRP	0.558
RRIRARPPRLPRPRPRPRPIPRP	0.719
RRIRDRPPRLPRPRPRPHWMPRP	0.236
RRIRQRPPRLPRPRPRPFDQPRP	-0.0498
RRIRERPPRLPRPRPRPWKEPRP	0.0039
RRIRSRPPRLPRPRPRPARRPRP	0.0588
RRIRDRPPRLPRPRPRPKRSPRP	-0.0252
RRIRHRPPRLPRPRPRPRDKPRP	-0.132
RRIRLRPPRLPRPRPRPGVKPRP	0.108
RRIRLRPPRLPRPRPRPCCWPRP	0.41
RRIRSRPPRLPRPRPRPGYFPRP	-0.335
RRIRFRPPRLPRPRPRPNSKPRP	-0.464
RRIRNRPPRLPRPRPRPLYGPRP	-0.171
RRIRFRPPRLPRPRPRPYTQPRP	-0.152
RRIRHRPPRLPRPRPRPRPMPRP	-0.00237
RRIRERPPRLPRPRPRPWQAPRP	0.00281
RRIRGRPPRLPRPRPRPHPHPRP	0.399
RRIRLRPPRLPRPRPRPGWHPRP	0.13
RRIRWRPPRLPRPRPRPYGTPRP	-0.232
RRIRKRPPRLPRPRPRPQMCPRP	-0.0359
RRIRKRPPRLPRPRPRPDSQPRP	0.0697
RRIRPRPPRLPRPRPRPHMFPRP	0.00976
RRIRLRPPRLPRPRPRPDMMPRP	-0.295

Sequence	shrunken log2 fold change
RRIRYRPPRLPRPRPRPRFQPRP	-0.201
RRIRYRPPRLPRPRPRPLVNPRP	-1.09
RRIRDRPPRLPRPRPRPEPLPRP	0.0701
RRIRRRPPRLPRPRPRPQWFPRP	-0.076
RRIRGRPPRLPRPRPRPTPYPRP	0.324
RRIRIRPPRLPRPRPRPEKYPRP	-0.423
RRIRSRPPRLPRPRPRPVNPPRP	-0.118
RRIRFRPPRLPRPRPRPYPSPRP	-0.018
RRIRPRPPRLPRPRPRPQERPRP	0.0985
RRIRTRPPRLPRPRPRPNGMPRP	-0.245
RRIRDRPPRLPRPRPRPPEVPRP	0.705
RRIRLRPPRLPRPRPRPEILPRP	0.0325
RRIRMRPPRLPRPRPRPMPLPRP	0.00106
RRIRDRPPRLPRPRPRPDMTPRP	0.242
RRIRDRPPRLPRPRPRPCINPRP	0.224
RRIRFRPPRLPRPRPRPPAEPRP	0.606
RRIRMRPPRLPRPRPRPDLIPRP	0.0508
RRIRYRPPRLPRPRPRPQVCPRP	-0.00133
RRIRHRPPRLPRPRPRPKRPPRP	0.354
RRIRKRPPRLPRPRPRPEILPRP	0.728
RRIRDRPPRLPRPRPRPQRGPRP	0.0499
RRIRGRPPRLPRPRPRPATYPRP	0.235
RRIRCRPPRLPRPRPRPPLWPRP	0.32
RRIRCRPPRLPRPRPRPCEPPRP	-0.221
RRIRPRPPRLPRPRPRPNFTPRP	0.0917

Sequence	shrunken log2 fold change
RRIRPRPPRLPRPRPRPRPHPRP	0.499
RRIRTRPPRLPRPRPRPQMEPRP	0.00225
RRIRNRPPRLPRPRPRPIHMPRP	0.0468
RRIRCRPPRLPRPRPRPGLYPRP	-0.432
RRIRKRPPRLPRPRPRPMRTPRP	3.66
RRIRSRPPRLPRPRPRPHVWPRP	0.0587
RRIRDRPPRLPRPRPRPLPVPRP	-0.421
RRIRMRPPRLPRPRPRPMYLPRP	-0.0638
RRIRWRPPRLPRPRPRPMHAPRP	0.542
RRIRFRPPRLPRPRPRPFCHPRP	-0.433
RRIRMRPPRLPRPRPRPYKHPRP	-0.872
RRIRHRPPRLPRPRPRPRYIPRP	-0.528
RRIRKRPPRLPRPRPRPKHFPRP	0.024
RRIRERPPRLPRPRPRPVPYPRP	-0.132
RRIRGRPPRLPRPRPRPQWDPRP	0.534
RRIRHRPPRLPRPRPRPTGIPRP	-0.0208
RRIRMRPPRLPRPRPRPVFMPRP	-0.202
RRIRMRPPRLPRPRPRPQHRPRP	0.0767
RRIRLRPPRLPRPRPRPHPHPRP	-0.0325
RRIRVRPPRLPRPRPRPPFPPRP	0.369
RRIRMRPPRLPRPRPRPKTGPRP	0.895
RRIRFRPPRLPRPRPRPNILPRP	-0.178
RRIRVRPPRLPRPRPRPFMWPRP	-0.327
RRIRRRPPRLPRPRPRPNHCPRP	-0.142
RRIRNRPPRLPRPRPRPEFHPRP	-0.0541

Sequence	shrunken log2 fold change
RRIRARPPRLPRPRPRPNTKPRP	-0.124
RRIRRRPPRLPRPRPRPQSYPRP	-0.0292
RRIRCRPPRLPRPRPRPTHSPRP	0.288
RRIRPRPPRLPRPRPRPTEVPRP	-0.342
RRIRERPPRLPRPRPRPKGLPRP	0.0211
RRIRKRPPRLPRPRPRPHINPRP	-0.124
RRIRFRPPRLPRPRPRPRVGPRP	0.24
RRIRKRPPRLPRPRPRPSKPPRP	0.0859
RRIRKRPPRLPRPRPRPTYNPRP	-0.0201
RRIRDRPPRLPRPRPRPNKVPRP	-0.494
RRIRFRPPRLPRPRPRPLSYPRP	-0.0166
RRIRDRPPRLPRPRPRPTKGPRP	0.0341
RRIRDRPPRLPRPRPRPDYLPRP	0.0544
RRIRYRPPRLPRPRPRPASEPRP	-0.0202
RRIRSRPPRLPRPRPRPYQTPRP	-0.0406
RRIRNRPPRLPRPRPRPGTYPRP	-0.0105
RRIRRRPPRLPRPRPRPTRRPRP	0.853
RRIRKRPPRLPRPRPRPTAKPRP	0.00802
RRIRERPPRLPRPRPRPNTQPRP	-0.187
RRIRWRPPRLPRPRPRPNLQPRP	0.0402
RRIRKRPPRLPRPRPRPFNHPRP	-0.993
RRIRARPPRLPRPRPRPHDGPRP	0.373
RRIRQRPPRLPRPRPRPTWFPRP	0.104
RRIRDRPPRLPRPRPRPINLPRP	-0.129
RRIRGRPPRLPRPRPRPICTPRP	1.08
